# Experimental data reported in patent US20120259096A1.
# Where a chain is given by its changes, count along the chain named.
# B1: CA167_00983 (antibody, from another filing, rabbit IgG1, V domains shown)
# VH: QSVEESGGRLVTPGTPLTLTCTVSGFSLSNYAMSWVRQAPGKGLEWIGIIGKSGSTAYASWAKGRFTISRTSTTVDLEITSPTTEDTATYFCVRFVLLWGPGTLVTVS
# VL: AQVLTQTASPVSAAVGGTVTINCQSSQSVYKNNDLAWYQQKPGQPPKLLIYYASTLASGVSSRFKGSGSGTEFTLTISDAQCDDAATYYCLGSYDCSSADCNAFGGGTKVVVK
# B2: CA167_01080 (antibody, from another filing, rabbit IgG1, V domains shown)
# VH: QSLEESGGRLVTPETPLTLTCTASGIDLSKWPMTWVRQAPGKGLEWIGIIGRSGSTNYASWAKGRFTISKTSTTVDLKMTSPTTEDTATYFCARGGSYYDLWGQGTLVTVS
# VL: B1 VL with G17N, N22T, Y30W, A36S, P42L, G66A, E72Q, A80V, A86G, L91V
# Columns and labels:
# [1] = biological target: human Nav1.7 channel (type IX voltage-gated sodium channel alpha subunit) (human) (UniProt Q15858); assay: cell-based or functional assay
# [2] = biological target: recombinant rat Nav1.7 channels expressed in HEK cells (rat) (UniProt O08562); assay: cell-based or functional assay
# Sequence of recombinant rat Nav1.7 channels expressed in HEK cells (rat) (O08562 whole entry): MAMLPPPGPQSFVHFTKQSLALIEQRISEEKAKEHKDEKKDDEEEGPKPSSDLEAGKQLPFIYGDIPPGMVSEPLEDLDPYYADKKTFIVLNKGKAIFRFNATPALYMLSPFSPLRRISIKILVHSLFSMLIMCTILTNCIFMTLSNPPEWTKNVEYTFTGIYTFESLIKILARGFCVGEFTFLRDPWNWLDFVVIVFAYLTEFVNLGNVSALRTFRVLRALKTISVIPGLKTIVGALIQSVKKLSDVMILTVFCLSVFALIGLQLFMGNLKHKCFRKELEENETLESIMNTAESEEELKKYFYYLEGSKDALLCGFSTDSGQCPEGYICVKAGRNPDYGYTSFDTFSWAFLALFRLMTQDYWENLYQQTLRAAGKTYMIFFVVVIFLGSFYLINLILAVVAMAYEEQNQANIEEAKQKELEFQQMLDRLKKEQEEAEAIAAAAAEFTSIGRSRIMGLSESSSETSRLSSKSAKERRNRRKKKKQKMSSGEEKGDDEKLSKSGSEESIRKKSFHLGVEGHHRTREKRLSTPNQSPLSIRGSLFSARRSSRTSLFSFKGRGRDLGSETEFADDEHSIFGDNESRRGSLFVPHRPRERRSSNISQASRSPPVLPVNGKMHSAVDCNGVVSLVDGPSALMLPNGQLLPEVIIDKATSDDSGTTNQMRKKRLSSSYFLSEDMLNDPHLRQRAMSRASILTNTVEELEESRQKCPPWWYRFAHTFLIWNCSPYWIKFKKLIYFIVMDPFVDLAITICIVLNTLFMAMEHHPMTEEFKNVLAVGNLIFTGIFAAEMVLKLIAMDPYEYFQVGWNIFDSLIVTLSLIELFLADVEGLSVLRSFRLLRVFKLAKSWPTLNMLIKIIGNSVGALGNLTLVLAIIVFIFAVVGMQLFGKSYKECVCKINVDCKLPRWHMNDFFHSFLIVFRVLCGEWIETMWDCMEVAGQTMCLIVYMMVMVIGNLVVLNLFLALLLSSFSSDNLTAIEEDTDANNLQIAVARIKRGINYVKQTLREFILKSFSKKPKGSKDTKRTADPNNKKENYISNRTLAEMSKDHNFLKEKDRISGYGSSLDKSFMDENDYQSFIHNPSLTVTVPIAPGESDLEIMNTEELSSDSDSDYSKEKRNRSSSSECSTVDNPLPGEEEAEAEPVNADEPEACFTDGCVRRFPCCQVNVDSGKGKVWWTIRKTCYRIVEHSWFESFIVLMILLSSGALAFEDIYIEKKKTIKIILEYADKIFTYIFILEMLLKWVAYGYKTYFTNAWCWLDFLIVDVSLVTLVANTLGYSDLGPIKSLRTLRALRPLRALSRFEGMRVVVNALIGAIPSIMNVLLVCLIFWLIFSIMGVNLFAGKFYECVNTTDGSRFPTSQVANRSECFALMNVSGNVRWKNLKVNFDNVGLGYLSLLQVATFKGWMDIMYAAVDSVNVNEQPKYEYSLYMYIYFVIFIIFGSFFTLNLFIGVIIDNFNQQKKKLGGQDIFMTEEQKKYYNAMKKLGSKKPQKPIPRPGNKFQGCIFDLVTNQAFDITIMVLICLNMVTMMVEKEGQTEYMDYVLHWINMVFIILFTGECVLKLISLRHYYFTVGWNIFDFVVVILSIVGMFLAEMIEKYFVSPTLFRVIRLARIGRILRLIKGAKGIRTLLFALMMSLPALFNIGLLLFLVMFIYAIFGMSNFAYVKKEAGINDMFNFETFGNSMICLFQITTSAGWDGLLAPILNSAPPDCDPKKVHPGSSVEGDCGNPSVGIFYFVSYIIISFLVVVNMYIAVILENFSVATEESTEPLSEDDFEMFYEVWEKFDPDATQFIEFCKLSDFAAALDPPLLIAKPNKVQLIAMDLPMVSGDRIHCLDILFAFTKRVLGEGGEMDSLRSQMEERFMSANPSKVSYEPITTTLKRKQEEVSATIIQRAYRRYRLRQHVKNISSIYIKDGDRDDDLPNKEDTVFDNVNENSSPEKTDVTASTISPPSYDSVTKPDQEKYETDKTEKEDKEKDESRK
binder,measurement,setting,value
B1,"Nav1.7 inhibition (%), automated patch clamp on HEK cells, antibody at 25 µg/ml",[1],41%
B2,"Nav1.7 inhibition (%), automated patch clamp on HEK cells, antibody at 25 µg/ml",[1],46%
same,"inhibition of Nav1.7 currents, automated patch clamp on HEK cells, antibody at 25 µg/ml",[2],26%
